Measurements: article PMC8715544 (JACS Au, 2021)

Target: the molecule itself
Experiment: SEC

B1: Escherichia coli methionine adenosyltransferase eMAT (enzyme)
chain: MAKHLFTSESVSEGHPDKIADQISDAVLDAILEQDPKARVACETYVKTGMVLVGGEITTSAWVDIEEITRNTVREIGYVHSDMGFDANSCAVLSAIGKQSPDINQGVDRADPLEQGAGDQGLMFGYATNETDVLMPAPITYAHRLVQRQAEVRKNGTLPWLRPDAKSQVTFQYDDGKIVGIDAVVLSTQHSEEIDQKSLQEAVMEEIIKPILPAEWLTSATKFFINPTGRFVIGGPMGDCGLTGRKIIVDTYGGMARHGGGAFSGKDPSKVDRSAAYAARYVAKNIVAAGLADRCEIQVSYAIGVAEPTSIMVETFGTEKVPSEQLTLLVREFFDLRPYGLIQMLDLLHPIYKETAAYGHFGREHFPWEKTDKAQLLRDAAGLK
  stoichiometry N: 4
